Assay results published in patent US20140288007A1.

B1: RgpB (mature Arg-gingipain purified from P. gingivalis HG66) (protein)
chain: YTPVEEKENGRMIVIVPKKYEEDIEDFVDWKNQRGLRTEVKVAEDIASPVTANAIQQFVKQEYEKEGNDLTYVLLVGDHKDIPAKITPGIKSDQVYGQIVGNDHYNEVFIGRFSCESKEDLKTQIDRTIHYERNITTEDKWLGQALCIASAEGGPSADNGESDIQHENIIANLLTQYGYTKIIKCYDPGVTPKNIIDAFNGGISLANYTGHGSETAWGTSHFGTTHVKQLTNSNQLPFIFDVACVNGDFLYNVPCFAEALMRAQKDGKPTGTVAIIASTINQSWASPMRGQDEMNEILCEKHPNNIKRTFGGVTMNGMFAMVEKYKKDGEKMLDTWTVFGDPSLLVRTLVPTKMQVTAPANISASAQTFEVACDYNGAIATLSDDGDMVGTAIVKDGKAIIKLNESIADETNLTLTVVGYNKVTVIKDVKVEGTSIADVANDKPYTVAVSGKTITVESPAAGLTIFDMNGRRVATAKNRMVFEAQNGVYAVRIATEGKTYTEKVIVK

Experiments:
[1] = target: RgpB (mature Arg-gingipain purified from P. gingivalis HG66) (Porphyromonas gingivalis) (UniProt P95493); assay: cell-based or functional assay
[2] = target: Whole cell W50 (proteolytic activity on BapNa substrate); assay: cell-based or functional assay
caspase 3 = assay: cell-based or functional assay
papain = papain (UniProt P00784); assay: cell-based or functional assay
[3] = target: RgpB (mature Arg-gingipain purified from P. gingivalis HG66) (Porphyromonas gingivalis) (UniProt P95493); assay: enzyme inhibition kinetics (non-competitive, Ki′), chromogenic substrate BapNA, secondary plot of Vmax observed against inhibitor concentration
[4] = target: Kgp on P. gingivalis W50 whole cells (Lys-specific activity, GPKNa substrate) (Porphyromonas gingivalis) (UniProt Q51817); assay: cell-based or functional assay
[5] = target: T1, recombinant RgpB propeptide, P95493
T1 chain: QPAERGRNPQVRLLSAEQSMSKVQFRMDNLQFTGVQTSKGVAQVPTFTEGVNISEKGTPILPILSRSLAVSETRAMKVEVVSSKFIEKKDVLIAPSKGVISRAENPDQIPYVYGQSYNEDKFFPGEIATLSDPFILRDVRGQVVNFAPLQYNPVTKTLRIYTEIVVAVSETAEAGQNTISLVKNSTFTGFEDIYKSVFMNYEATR

Sequence of UniProt P00784 (P00784 134-345 limits assumed): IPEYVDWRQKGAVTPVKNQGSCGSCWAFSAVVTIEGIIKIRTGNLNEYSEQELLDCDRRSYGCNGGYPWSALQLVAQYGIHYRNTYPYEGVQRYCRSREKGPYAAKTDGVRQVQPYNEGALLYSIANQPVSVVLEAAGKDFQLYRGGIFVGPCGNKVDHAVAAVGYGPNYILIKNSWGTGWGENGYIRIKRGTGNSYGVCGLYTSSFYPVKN

Molecule	inhibition of RgpB activity, DQ BSA, 2 h incubation [1]	% Proteolytic Activity (whole cells, BapNa; inhibitor 40 mg/L) [2]	% Proteolytic Activity (whole cells, BapNa; inhibitor 80 mg/L) [2]	% Proteolytic Activity (Ac-DEVD-pNa 200 uM; inhibitor 100 mg/L) (caspase 3)	% Proteolytic Activity (BapNa; inhibitor 40 mg/L) (papain)	Ki [3]	% Proteolytic Activity (whole cells, GPKNa; inhibitor 40 mg/L) [4]	% Proteolytic Activity (whole cells, GPKNa; inhibitor 80 mg/L) [4]	% Proteolytic Activity (BapNa; inhibitor 50 mg/L) [1]	RgpB proteolytic activity, DQ-BSA fluorescent substrate, 11 h time course [5]
recombinant RgpB propeptide (from UniProt P95493 25-229)	50%	68%	59%	129%	68%	11.8 nM				
recombinant Kgp propeptide (from UniProt Q51817 25-1732)				121%	88%		65%	40%	105%	
B1										Addition of 10 mg/L (0.44 µM) or 20 mg/L (0.88 µM) RgpB propeptide resulted in near total inhibition of RgpB proteolytic activity
